Results reported in patent EP4792891A2 (LTZ Therapeutics Inc., dated 2026).

Experiments:
EGFR on DLD-1 cells = EGFR on DLD-1 cells (UniProt P00533); assay: cell-based or functional assay
[1] = biological target: T1, CD79b on cells (Ramos cells, endogenous B cells) (human, UniProt P40259 29-229); assay: cell-based or functional assay
T1 sequence (looked up): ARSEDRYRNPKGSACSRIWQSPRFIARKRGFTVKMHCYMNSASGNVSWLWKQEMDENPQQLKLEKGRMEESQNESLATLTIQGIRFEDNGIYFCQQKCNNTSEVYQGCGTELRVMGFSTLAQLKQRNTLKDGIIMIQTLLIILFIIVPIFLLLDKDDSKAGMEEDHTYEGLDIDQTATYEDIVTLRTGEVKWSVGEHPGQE

## Necitumumab (antibody)
EGFR on DLD-1 cells
  IC50 (nM), DLD-1 cell killing by M0 macrophages: 0.0574 nM

B1: CD79b/5C7 (1+1 B) Fc-optimized (bispecific antibody, human IgG1, kappa)
heavy 1: EQQLVETGGGLIQPGGSLRLSCAASGFTINIDYWISWVRQAPGKGLEWIGIIDPGDGTTYFAIWVSGRFTISFDNSKNTVYLQMNSLRAEDTAVYFCVREFSASAYQYDLWGPGTLVTVSSASTKGPSVFPLAPSSKSTSGGTAALGCLVKDYFPEPVTVSWNSGALTSGVHTFPAVLQSSGLYSLSSVVTVPSSSLGTQTYICNVNHKPSNTKVDKKVEPKSCDKTHTCPPCPAPELLAGPSVFLFPPKPKDTLMISRTPEVTCVVVDVSHEDPEVKFNWYVDGVEVHNAKTKPREEQYNSTYRVVSVLTVLHQDWLNGKEYKCKVSNKALPLPEEKTISKAKGQPREPQVYTLPPSRDELTKNQVSLSCAVKGFYPSDIAVEWESNGQPENNYKTTPPVLDSDGSFFLVSKLTVDKSRWQQGNVFSCSVMHEALHNHYTQKSLSLSPGK
heavy 2: DIQMTQSPSSLSASVGDRVTITCQASESVDRNNRLAWFQQKPGKPPKLLIYTTSTLASGVPSRFSGSGSGTDFTLTISSLQPEDVATYYCAGYRGAHTDGDAFGGGTKVEIKGGGGSGGGGSGGGGSGGGGSEQQLVESGGGLVKPGGSLRLSCAASGFSFSRSSYMCWVRQAPGKGLEWIGCLSVGDGHTYYASWAKGRFTISKDSAKNSVYLQMNSLRAEDTAVYFCARAPSYSGDGGHGYDLWGPGTLVTVSSDKTHTCPPCPAPELLAGPSVFLFPPKPKDTLMISRTPEVTCVVVDVSHEDPEVKFNWYVDGVEVHNAKTKPREEQYNSTYRVVSVLTVLHQDWLNGKEYKCKVSNKALPLPEEKTISKAKGQPREPQVYTLPPSRDELTKNQVSLWCLVKGFYPSDIAVEWESNGQPENNYKTTPPVLDSDGSFFLYSKLTVDKSRWQQGNVFSCSVMHEALHNHYTQKSLSLSPGK
light: ELVMTQSPATLSVSPGERATLSCRASEDIENYLAWYQQKPGQPPRLLIYRASTLSSGVPARFSGSGSGTEFTLTISSLQSEDFAVYYCQQGYRNSNVDNPFGGGTKVEIKRTVAAPSVFIFPPSDEQLKSGTASVVCLLNNFYPREAKVQWKVDNALQSGNSQESVTEQDSKDSTYSLSSTLTLSKADYEKHKVYACEVTHQGLSSPVTKSFNRGEC
[1]
  IC50 (nM), killing of endogenous B cells by PBMCs, Donor 234: 0.0453 nM

B2: CD79b/5C7 (2+2 B) Fc-optimized (bispecific antibody, human IgG1, kappa)
heavy: EQQLVETGGGLIQPGGSLRLSCAASGFTINIDYWISWVRQAPGKGLEWIGIIDPGDGTTYFAIWVSGRFTISFDNSKNTVYLQMNSLRAEDTAVYFCVREFSASAYQYDLWGPGTLVTVSSASTKGPSVFPLAPSSKSTSGGTAALGCLVKDYFPEPVTVSWNSGALTSGVHTFPAVLQSSGLYSLSSVVTVPSSSLGTQTYICNVNHKPSNTKVDKKVEPKSCDKTHTCPPCPAPELLAGPSVFLFPPKPKDTLMISRTPEVTCVVVDVSHEDPEVKFNWYVDGVEVHNAKTKPREEQYNSTYRVVSVLTVLHQDWLNGKEYKCKVSNKALPLPEEKTISKAKGQPREPQVYTLPPSRDELTKNQVSLTCLVKGFYPSDIAVEWESNGQPENNYKTTPPVLDSDGSFFLYSKLTVDKSRWQQGNVFSCSVMHEALHNHYTQKSLSLSPGGGGGSGGGGSGGGGSDIQMTQSPSSLSASVGDRVTITCQASESVDRNNRLAWFQQKPGKPPKLLIYTTSTLASGVPSRFSGSGSGTDFTLTISSLQPEDVATYYCAGYRGAHTDGDAFGCGTKVEIKGGGGSGGGGSGGGGSGGGGSEQQLVESGGGLVKPGGSLRLSCAASGFSFSRSSYMCWVRQAPGKCLEWIGCLSVGDGHTYYASWAKGRFTISKDSAKNSVYLQMNSLRAEDTAVYFCARAPSYSGDGGHGYDLWGPGTLVTVSS
light: ELVMTQSPATLSVSPGERATLSCRASEDIENYLAWYQQKPGQPPRLLIYRASTLSSGVPARFSGSGSGTEFTLTISSLQSEDFAVYYCQQGYRNSNVDNPFGGGTKVEIKRTVAAPSVFIFPPSDEQLKSGTASVVCLLNNFYPREAKVQWKVDNALQSGNSQESVTEQDSKDSTYSLSSTLTLSKADYEKHKVYACEVTHQGLSSPVTKSFNRGEC
[1]
  IC50 (nM), killing of endogenous B cells by PBMCs, Donor 367: 0.0168 nM
  IC50 (nM), killing of endogenous B cells by PBMCs, Donor 431: 0.0168 nM
